Assay results: PMC4599659

Columns and labels:
[1] = biological target: P22 coat protein (bacteriophage P22) (UniProt P26747); test: SEC-MALS; P22-CYP VLPs from co-expression (pETDuet) in E. coli, purified; HPLC-MALS-RI on WTC-100S5 column, 50 mM phosphate pH 7.2, 100 mM NaCl, 200 ppm sodium azide; CYP-SP per capsid by Eq. 1 (capsid mass taken as 19,572 kDa, CYP-SP 71.5 kDa)
[2] = biological target: P22 coat protein (bacteriophage P22) (UniProt P26747); test: SEC-MALS; P22-CYP VLPs from differential expression 1 (pBAD + pRSF; 0.2 % L-arabinose, then 0.5 mM IPTG) in E. coli, purified; HPLC-MALS-RI on WTC-100S5 column, 50 mM phosphate pH 7.2, 100 mM NaCl, 200 ppm sodium azide; CYP-SP per capsid by Eq. 1
[3] = biological target: P22 coat protein (bacteriophage P22) (UniProt P26747); test: SEC-MALS; P22-CYP VLPs from differential expression 2 (pBAD + pRSF; 0.125 % L-arabinose, then 0.3 mM IPTG) in E. coli, purified; HPLC-MALS-RI on WTC-100S5 column, 50 mM phosphate pH 7.2, 100 mM NaCl, 200 ppm sodium azide; CYP-SP per capsid by Eq. 1

Sequence of UniProt P26747 (P26747 whole entry): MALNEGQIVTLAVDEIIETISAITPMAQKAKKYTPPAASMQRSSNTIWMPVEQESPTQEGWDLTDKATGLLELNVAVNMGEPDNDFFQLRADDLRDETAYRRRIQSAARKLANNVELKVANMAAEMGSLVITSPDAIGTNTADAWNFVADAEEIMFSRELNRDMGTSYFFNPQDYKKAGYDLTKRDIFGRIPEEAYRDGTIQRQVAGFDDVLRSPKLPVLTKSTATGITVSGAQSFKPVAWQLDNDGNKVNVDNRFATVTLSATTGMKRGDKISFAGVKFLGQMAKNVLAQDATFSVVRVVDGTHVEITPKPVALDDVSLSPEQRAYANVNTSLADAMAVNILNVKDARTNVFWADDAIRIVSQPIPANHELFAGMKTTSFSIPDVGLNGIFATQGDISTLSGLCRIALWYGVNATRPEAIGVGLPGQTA

## CYPBM3 "21B3"-scaffold protein fusion (CYP-SP) (from UniProt P26748 141-303)
[1]
  stoichiometry N: 156 CYP/capsid
[2]
  stoichiometry N: 130 CYP/capsid
[3]
  stoichiometry N: 110 CYP/capsid
